This is an account of results in patent US6602992B1, “Mammalian prestin polynucleotides” (Northwestern University, priority 2000, dated 2003).

For test [1], the target named is T1, prestin (Meriones unguiculatus, UniProt Q9JKQ2).
T1 sequence (Q9JKQ2 1-744): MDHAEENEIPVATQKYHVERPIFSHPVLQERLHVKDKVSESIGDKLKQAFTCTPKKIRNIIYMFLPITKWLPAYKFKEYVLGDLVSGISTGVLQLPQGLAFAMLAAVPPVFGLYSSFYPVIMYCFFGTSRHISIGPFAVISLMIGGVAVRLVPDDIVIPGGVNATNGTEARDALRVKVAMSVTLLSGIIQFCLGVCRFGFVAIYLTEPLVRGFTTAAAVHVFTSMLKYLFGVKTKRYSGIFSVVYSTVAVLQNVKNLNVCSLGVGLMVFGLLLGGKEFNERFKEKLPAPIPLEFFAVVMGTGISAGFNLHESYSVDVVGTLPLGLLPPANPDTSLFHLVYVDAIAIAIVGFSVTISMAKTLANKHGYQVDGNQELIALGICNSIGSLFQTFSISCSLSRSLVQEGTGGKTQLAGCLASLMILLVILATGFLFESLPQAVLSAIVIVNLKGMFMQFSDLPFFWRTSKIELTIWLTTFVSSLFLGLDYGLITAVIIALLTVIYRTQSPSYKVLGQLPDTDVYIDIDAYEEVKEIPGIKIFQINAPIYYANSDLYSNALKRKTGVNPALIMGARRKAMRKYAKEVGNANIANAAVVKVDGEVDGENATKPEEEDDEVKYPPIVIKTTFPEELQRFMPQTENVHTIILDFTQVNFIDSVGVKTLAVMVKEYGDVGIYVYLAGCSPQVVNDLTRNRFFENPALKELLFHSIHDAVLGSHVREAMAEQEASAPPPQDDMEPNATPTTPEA
Particulars: 10 millimolar in external bathing solution, FIG. 6C.
Procedure: (§1) TSA201 cells, clones of human embryonic kidney 293 cells that express the simian virus 40 (SV40) large T-antigen in a stable manner, were cultured in DMEM with 5% fetal calf serum, 100 units of penicillin per millilter, and 100 micrograms of streptomycin per milliliters. Cells were plated for 24 hours before calcium phosphate transfection. The transfection reaction mixture contained:
(§2) a) control plasmid, pcDNA3.1; b) 2 micrograms of Pres cDNA plasmid; c) 2 micrograms of Pres cDNA plasmid plus 0.2 micrograms of green fluorescent protein (GFP) plasmid as transfection marker; or d) 2 micrograms of pendrin cDNA plasmid plus 0.2 micrograms GFP plasmid.
(§3) After 24 hours the transfected cells were used for electrophysiological and physical measurements.
TSA201 cells were drawn into a microchamber with gentle suction (FIG. 6A). The microchamber was mounted on a three-dimensional micromanipulator attached to the stage of a Zeiss inverted microscope. […] The command voltage, delivered between the electrolyte solutions (L15, Gibco BRL) surrounding and filling the microchamber, produces different voltage drops on the included and excluded cell membrane segments, determined by the electrical voltage-divider effect of these membranes. During motility measurements, the location of the cell within the slit was monitored via a video camera placed behind the slit. […]

Test [2] has as its target T1, prestin.
Procedure: as §1, §2, §3
Whole-cell voltage-clamp recordings were made with an Axopatch™ 200B amplifier (Axon Instruments, Foster City, Calif.) Recording pipettes had open tip resistances of 2-3 megaohms and were filled with internal solution containing 140 millimolar CsCl, 2 millimolar MgCl2, 10 millimolar EGTA, and 10 millimolar HEPES at pH 7.2. The external solution contained: 120 millimolar NaCl, 20 millimolar TEA-Cl, 2 millimolar CoCl2, 2 millimolar MgCl2, 10 millimolar HEPES, and 5 millimolar glucose at pH 7.2. Osmolarity was adjusted to 300 milliosmolar per liter with glucose. Capacitive currents were filtered at 5 kilohertz and digitized at 50 kilohertz using pClamp 7.0 software (Axon Instruments).
Voltage-dependent capacitance was measured using two methods. First, a standard P/4 linear subtraction procedure was employed to detect the presence of nonlinear charge movement. After nonlinear transient current was detected, a stair-step voltage protocol was used to obtain the parameters of charge movement. For each voltage step, the measured membrane capacitance (Cm) was plotted as a function of membfane voltage (Vm) and fitted with the derivative of a Boltzmann function: [formula] […]
Test [3] has as its system TSA201 cells. Description: Nonlinear capacitance / charge movement conveyed to transiently transfected TSA201 cells. It is filed as cell-based, human. The arrangement: average charge density: unit not given here. The conditions noted are these: for nonlinear capacitance: co-transfected with GFP. The procedure:
The transfection reaction mixture contained:
Voltage-dependent capacitance was measured using two methods.
To test the sensor-motor function of prestin, voltage-dependent charge movement was measured in TSA201 cells after transient transfection of unmodified, native Pres cDNA. A second plasmid (pEGFP-N2) containing GFP cDNA was used as an independent marker for successful transfection of the cells. Transfection efficiency was 30-40% as judged from the fluorescence of GFP in transfected cells. […] In experiments conducted on cells co-transfected with prestin and GFP cDNA, transient capacitive currents were obtained from 91.8% of the GFP positive cells. […] The capacitive currents were directed towards the outside as the membrane potential was depolarized and toward the inside as it was hyperpolarized. Charges transferred at command onset and offset were approximately equal. The decay of transient currents was rapid (100-200 microseconds) and could be well-fitted with a single exponential. The voltage protocol used to estimate membrane capacitance and charge transfer across the membrane was an ascending stair-step voltage waveform (FIG. 5B). The membrane capacitance was fitted to the derivative of a first-order Boltzmann equation (FIG. 5C). In a group of seven cells, these curve-fits yielded values of Qmax=1.76±0.20 pC, V1/2=−57.30 ±2.98 mV, 1/a˜=kT/ze=28.00±2.13 mV, and Clin=20.50±2.65 pF, respectively (mean±SEM). The valence can be calculated from a, z=0.91. The average charge density, a possible measure of transiently transfected motor protein density in TSA201 cells, was […]. The numerical values that characterize the charge movement (V1/2, z) are quite similar to those obtained for OHCs. The maximum charge and charge density are less in the transfected cells, even though the linear capacitance is about the same as that of an average OHC. […]

Test [4] relates to TSA201 cells. Description: Electromotility conveyed to transfected TSA201 cells (microchamber). It is filed as cell-based, human. Particulars: cells drawn into microchamber, 200 Hertz sinusoid. The text has this:
A change of photocurrent signified cell extension or contraction.

Where [5] appears, read: Boltzmann fit, seven cells, mean±SEM.

For the molecule `O=C([O-])c1ccccc1O.[Na+]` [Sodium salicylate, sodium salicylate], the “effect on electromotile response” value in test [1] is recorded as “reversible decrease in the electromotile response”. In test [2], the “effect on charge movement” value is “reversibly blocks charge movement”. The “transient currents after recovery, % of control” value in test [2] (3 cells, after 2-5 minutes of washing in normal extracellular solution without sodium salicylate) was 88.4±8.8 % of control. In test [2] (10 millimolar sodium salicylate applied locally, mean±SEM), the “transient currents, % of control” value is on record as 15.5±2.9 % of control.

B1: human pendrin: chloride-iodide transport protein homologous to prestin, expressed from cDNA as specificity control (protein, UniProt O43511 1-780, looked up)
Pendrin: MAAPGGRSEPPQLPEYSCSYMVSRPVYSELAFQQQHERRLQERKTLRESLAKCCSCSRKRAFGVLKTLVPILEWLPKYRVKEWLLSDVISGVSTGLVATLQGMAYALLAAVPVGYGLYSAFFPILTYFIFGTSRHISVGPFPVVSLMVGSVVLSMAPDEHFLVSSSNGTVLNTTMIDTAARDTARVLIASALTLLVGIIQLIFGGLQIGFIVRYLADPLVGGFTTAAAFQVLVSQLKIVLNVSTKNYNGVLSIIYTLVEIFQNIGDTNLADFTAGLLTIVVCMAVKELNDRFRHKIPVPIPIEVIVTIIATAISYGANLEKNYNAGIVKSIPRGFLPPELPPVSLFSEMLAASFSIAVVAYAIAVSVGKVYATKYDYTIDGNQEFIAFGISNIFSGFFSCFVATTALSRTAVQESTGGKTQVAGIISAAIVMIAILALGKLLEPLQKSVLAAVVIANLKGMFMQLCDIPRLWRQNKIDAVIWVFTCIVSIILGLDLGLLAGLIFGLLTVVLRVQFPSWNGLGSIPSTDIYKSTKNYKNIEEPQGVKILRFSSPIFYGNVDGFKKCIKSTVGFDAIRVYNKRLKALRKIQKLIKSGQLRATKNGIISDAVSTNNAFEPDEDIEDLEELDIPTKEIEIQVDWNSELPVKVNVPKVPIHSLVLDCGAISFLDVVGVRSLRVIVKEFQRIDVNVYFASLQDYVIEKLEQCGFFDDNIRKDTFFLTVHDAILYLQNQVKSQEGQGSILETITLIQDCKDTLELIETELTEEELDVQDEAMRTLAS
In the case of B1, the “nonlinear capacitance” value in test [3] is given as “None of the GFP-positive cells demonstrated nonlinear capacitance”.

B2: prestin: gerbil outer hair cell motor protein, 744 amino acids, 81.4 kiloDaltons, SEQ ID NO:1, expressed from Pres cDNA (protein, listed as Meriones unguiculatus)
chain: T1 sequence (Q9JKQ2 1-744)
As for B2, the “cells tested showing electromotility” value in test [4] is “about 22%”. Further, in test [3] (setting [5]), the “1/a = kT/ze, slope factor” value is on record as 28.00±2.13 mV; the “Qmax, maximum charge transfer” value was found to be 1.76±0.20 pC; the “V1/2, voltage at which the maximum charge is equally distributed” value was −57.30 ±2.98 mV. In addition, in test [3] (calculated from a), the valence z is reported as 0.91. Moreover, the “cells displaying transient capacitive currents” value in test [3] (cells transfected with Pres alone) was determined as 36.8%. For the same molecule, in test [3] (co-transfected with prestin and GFP cDNA), the “GFP positive cells displaying transient capacitive currents” value is listed as 91.8%. In test [3] (single exponential), the “decay of transient currents” value is reported as 100-200 microseconds. The molecule further yielded an average charge density in test [3] (transiently transfected TSA201 cells) of 5360.

B3: N-tagged prestin: full-length prestin with an Xpress epitope located upstream and in-frame (protein, UniProt P58743 1-744, looked up)
chain: MDHAEENEILAATQRYYVERPIFSHPVLQERLHTKDKVPDSIADKLKQAFTCTPKKIRNIIYMFLPITKWLPAYKFKEYVLGDLVSGISTGVLQLPQGLAFAMLAAVPPIFGLYSSFYPVIMYCFLGTSRHISIGPFAVISLMIGGVAVRLVPDDIVIPGGVNATNGTEARDALRVKVAMSVTLLSGIIQFCLGVCRFGFVAIYLTEPLVRGFTTAAAVHVFTSMLKYLFGVKTKRYSGIFSVVYSTVAVLQNVKNLNVCSLGVGLMVFGLLLGGKEFNERFKEKLPAPIPLEFFAVVMGTGISAGFNLKESYNVDVVGTLPLGLLPPANPDTSLFHLVYVDAIAIAIVGFSVTISMAKTLANKHGYQVDGNQELIALGLCNSIGSLFQTFSISCSLSRSLVQEGTGGKTQLAGCLASLMILLVILATGFLFESLPQAVLSAIVIVNLKGMFMQFSDLPFFWRTSKIELTIWLTTFVSSLFLGLDYGLITAVIIALLTVIYRTQSPSYKVLGKLPETDVYIDIDAYEEVKEIPGIKIFQINAPIYYANSDLYSNALKRKTGVNPAVIMGARRKAMRKYAKEVGNANMANATVVKADAEVDGEDATKPEEEDGEVKYPPIVIKSTFPEEMQRFMPPGDNVHTVILDFTQVNFIDSVGVKTLAGIVKEYGDVGIYVYLAGCSAQVVNDLTRNRFFENPALWELLFHSIHDAVLGSQLREALAEQEASAPPSQEDLEPNATPATPEA
modifications: full-length N-terminal Xpress tag
For B3, the “nonlinear capacitance” value in test [3] is “typical nonlinear capacitance curve is observed”.

B4: C-tagged prestin: full-length prestin tagged at the C-terminus with a V5 epitope (protein, UniProt P58743 1-744, looked up)
chain: B3 chain
modifications: full-length C-terminal V5 tag
As to B4, the “nonlinear capacitance” value in test [3] is “typical nonlinear capacitance curve is observed”.
